Measurements published in publication PMC6992733, “Analysis of the polycystin complex (PCC) in human urinary exosome–like vesicles (ELVs)” (Scientific Reports, 2020).
“And” between values parts separate entries of the source, which are not always exact repeats. Identical values can stand only once.

What was measured:
[1] = target: the molecule itself; assay: native gel or EMSA; purified urinary ELVs with 0.2-0.8% SDS, non reducing, incubated on ice 20 min without heating; native gel; western blot
[2] = target: the molecule itself; assay: SDS-PAGE and western blot; human RCTE cells, PC2 bands on SDS-PAGE western blot read as monomer, dimer and tetramer (Supplemental Fig. 2)

Protein | stoichiometry N [1] | stoichiometry N [2]
polycystin-2 (PC2) of urinary ELVs (natural protein, human (endogenous in urinary ELVs), UniProt Q13563 1-968, looked up, mature post-Golgi N-linked glycosylation (PNGase F sensitive, Endo H resistant), polycystin-2, human, product of PKD2, printed length 968 aa; about 10-13% is cleaved in the C-terminal tail N-terminal to the coiled-coil domain (833..872 aa); also called ELV PC2; source: endogenous, human urinary exosome-like vesicles (ELVs), detergent-solubilised) MVNSSRVQPQQPGDAKRPPAPRAPDPGRLMAGCAAVGASLAAPGGLCEQRGLEIEMQRIRQAAARDPPAGAAASPSPPLSSCSRQAWSRDNPGFEAEEEEEEVEGEEGGMVVEMDVEWRPGSRRSAASSAVSSVGARSRGLGGYHGAGHPSGRRRRREDQGPPCPSPVGGGDPLHRHLPLEGQPPRVAWAERLVRGLRGLWGTRLMEESSTNREKYLKSVLRELVTYLLFLIVLCILTYGMMSSNVYYYTRMMSQLFLDTPVSKTEKTNFKTLSSMEDFWKFTEGSLLDGLYWKMQPSNQTEADNRSFIFYENLLLGVPRIRQLRVRNGSCSIPQDLRDEIKECYDVYSVSSEDRAPFGPRNGTAWIYTSEKDLNGSSHWGIIATYSGAGYYLDLSRTREETAAQVASLKKNVWLDRGTRATFIDFSVYNANINLFCVVRLLVEFPATGGVIPSWQFQPLKLIRYVTTFDFFLAACEIIFCFFIFYYVVEEILEIRIHKLHYFRSFWNCLDVVIVVLSVVAIGINIYRTSNVEVLLQFLEDQNTFPNFEHLAYWQIQFNNIAAVTVFFVWIKLFKFINFNRTMSQLSTTMSRCAKDLFGFAIMFFIIFLAYAQLAYLVFGTQVDDFSTFQECIFTQFRIILGDINFAEIEEANRVLGPIYFTTFVFFMFFILLNMFLAIINDTYSEVKSDLAQQKAEMELSDLIRKGYHKALVKLKLKKNTVDDISESLRQGGGKLNFDELRQDLKGKGHTDAEIEAIFTKYDQDGDQELTEHEHQQMRDDLEKEREDLDLDHSSLPRPMSSRSFPRSLDDSEEDDDEDSGHSSRRRGSISSGVSYEEFQVLVRRVDRMEHSIGSIVSKIDAVIVKLEIMERAKLKRREVLGRLLDGVAEDERLGRDSEIHREQMERLVREELERWESDDAASQISHGLGTPVGLNGQPRPRSSRPSSSQSTEGMEGAGGNGSSNVHV | 2 | –
polycystin-2 (PC2) of human renal cortical tubular epithelial (RCTE) cells (natural protein, human (endogenous in RCTE cells), UniProt Q13563 1-968, looked up, polycystin-2, human, product of PKD2, printed length 968 aa; also called PC2 from cells; source: endogenous, human RCTE cells) MVNSSRVQPQQPGDAKRPPAPRAPDPGRLMAGCAAVGASLAAPGGLCEQRGLEIEMQRIRQAAARDPPAGAAASPSPPLSSCSRQAWSRDNPGFEAEEEEEEVEGEEGGMVVEMDVEWRPGSRRSAASSAVSSVGARSRGLGGYHGAGHPSGRRRRREDQGPPCPSPVGGGDPLHRHLPLEGQPPRVAWAERLVRGLRGLWGTRLMEESSTNREKYLKSVLRELVTYLLFLIVLCILTYGMMSSNVYYYTRMMSQLFLDTPVSKTEKTNFKTLSSMEDFWKFTEGSLLDGLYWKMQPSNQTEADNRSFIFYENLLLGVPRIRQLRVRNGSCSIPQDLRDEIKECYDVYSVSSEDRAPFGPRNGTAWIYTSEKDLNGSSHWGIIATYSGAGYYLDLSRTREETAAQVASLKKNVWLDRGTRATFIDFSVYNANINLFCVVRLLVEFPATGGVIPSWQFQPLKLIRYVTTFDFFLAACEIIFCFFIFYYVVEEILEIRIHKLHYFRSFWNCLDVVIVVLSVVAIGINIYRTSNVEVLLQFLEDQNTFPNFEHLAYWQIQFNNIAAVTVFFVWIKLFKFINFNRTMSQLSTTMSRCAKDLFGFAIMFFIIFLAYAQLAYLVFGTQVDDFSTFQECIFTQFRIILGDINFAEIEEANRVLGPIYFTTFVFFMFFILLNMFLAIINDTYSEVKSDLAQQKAEMELSDLIRKGYHKALVKLKLKKNTVDDISESLRQGGGKLNFDELRQDLKGKGHTDAEIEAIFTKYDQDGDQELTEHEHQQMRDDLEKEREDLDLDHSSLPRPMSSRSFPRSLDDSEEDDDEDSGHSSRRRGSISSGVSYEEFQVLVRRVDRMEHSIGSIVSKIDAVIVKLEIMERAKLKRREVLGRLLDGVAEDERLGRDSEIHREQMERLVREELERWESDDAASQISHGLGTPVGLNGQPRPRSSRPSSSQSTEGMEGAGGNGSSNVHV | – | 2 and 4
